# Measured values published in the supplement of paper PMC5998384.
# Assays:
# [1] = test system: HeLa Kyoto; assay: solubility in G1/S (NP-40 vs SDS abundance) (log2 ratio); higher = more soluble; details: cell cycle stage: G1/S
# [2] = test system: HeLa Kyoto; assay: melting temperature (median over replicates), in situ; higher = more thermally stable
# [3] = test system: HeLa Kyoto; assay: solubility change mitosis vs G1/S (difference of NP-40 vs SDS log2 ratios) (log2 ratio difference); higher = more soluble in mitosis
# [4] = test system: HeLa Kyoto; assay: thermal stability score vs G1/S (z-score of summed log2 fold changes over temperatures); higher = more thermally stable than in G1/S
# [5] = cell cycle stage: early G1 (4.5 h after nocodazole release)
# 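For melting temperature (median over replicates), in situ in this document: HeLa Kyoto cells synchronized by double thymidine or nocodazole block, proteins quantified by TMT10plex mass spectrometry, three independent biological replicates.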
# 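For solubility change mitosis vs G1/S (difference of NP-40 vs SDS log2 ratios) in this document: synchronized HeLa Kyoto cells (double thymidine block for G1/S, nocodazole release for mitosis), protein amounts in NP-40 versus SDS lysates quantified by mass spectrometry, three biological replicates.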
# 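For solubility in G1/S (NP-40 vs SDS abundance) in this document: HeLa Kyoto cells arrested at G1/S by double thymidine block, proteins quantified by TMT10plex mass spectrometry in mild NP-40 versus SDS extracts, three biological replicates.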
# 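For thermal stability score vs G1/S (z-score of summed log2 fold changes over temperatures) in this document: synchronized HeLa Kyoto cells, proteins quantified by TMT10plex mass spectrometry, three biological replicates, mitosis taken 0.5 h after nocodazole release, G1/S directly after double thymidine block.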
Substance,solubility in G1/S (log2) [1],melting temperature ([2]; cell cycle stage: G1/S) [°C],melting temperature ([2]; cell cycle stage: mitosis) [°C],solubility change mitosis (log2) [3],"thermal stability score [4, 5]",thermal stability score ([4]; cell cycle stage: mitosis)
MADHVQSLAQLENLCKQLYETTDTTTRLQAEKALVEFTNSPDCLSKCQLLLERGSSSYSQLLAATCLTKLVSRTNNPLPLEQRIDIRNYVLNYLATRPKLATFVTQALIQLYARITKLGWFDCQKDDYVFRNAITDVTRFLQDSVEYCIIGVTILSQLTNEINQADTTHPLTKHRKIASSFRDSSLFDIFTLSCNLLKQASGKNLNLNDESQHGLLMQLLKLTHNCLNFDFIGTSTDESSDDLCTVQIPTSWRSAFLDSSTLQLFFDLYHSIPPSFSPLVLSCLVQIASVRRSLFNNAERAKFLSHLVDGVKRILENPQSLSDPNNYHEFCRLLARLKSNYQLGELVKVENYPEVIRLIANFTVTSLQHWEFAPNSVHYLLSLWQRLAASVPYVKATEPHMLETYTPEVTKAYITSRLESVHIILRDGLEDPLEDTGLVQQQLDQLSTIGRCEYEKTCALLVQLFDQSAQSYQELLQSASASPMDIAVQEGRLTWLVYIIGAVIGGRVSFASTDEQDAMDGELVCRVLQLMNLTDSRLAQAGNEKLELAMLSFFEQFRKIYIGDQVQKSSKLYRRLSEVLGLNDETMVLSVFIGKIITNLKYWGRCEPITSKTLQLLNDLSIGYSSVRKLVKLSAVQFMLNNHTSEHFSFLGINNQSNLTDMRCRTTFYTALGRLLMVDLGEDEDQYEQFMLPLTAAFEAVAQMFSTNSFNEQEAKRTLVGLVRDLRGIAFAFNAKTSFMMLFEWIYPSYMPILQRAIELWYHDPACTTPVLKLMAELVHNRSQRLQFDVSSPNGILLFRETSKMITMYGNRILTLGEVPKDQVYALKLKGISICFSMLKAALSGSYVNFGVFRLYGDDALDNALQTFIKLLLSIPHSDLLDYPKLSQSYYSLLEVLTQDHMNFIASLEPHVIMYILSSISEGLTALDTMVCTGCCSCLDHIVTYLFKQLSRSTKKRTTPLNQESDRFLHIMQQHPEMIQQMLSTVLNIIIFEDCRNQWSMSRPLLGLILLNEKYFSDLRNSIVNSQPPEKQQAMHLCFENLMEGIERNLLTKNRDRFTQNLSAFRREVNDSMKNSTYGVNSNDMMS [XPO7],-0.0594,52.2,52.2,-0.207,0.0845,0.043
TMED2,0.169,55.5,55.3,-0.171,1.23,2.29
MCASVKYNIRGPALIPRMKTKHRIYYITLFSIVLLGLIATGMFQFWPHSIESSNDWNVEKRSIRDVPVVRLPADSPIPERGDLSCRMHTCFDVYRCGFNPKNKIKVYIYALKKYVDDFGVSVSNTISREYNELLMAISDSDYYTDDINRACLFVPSIDVLNQNTLRIKETAQAMAQLSRWDRGTNHLLFNMLPGGPPDYNTALDVPRDRALLAGGGFSTWTYRQGYDVSIPVYSPLSAEVDLPEKGPGPRQYFLLSSQVGLHPEYREDLEALQVKHGESVLVLDKCTNLSEGVLSVRKRCHKHQVFDYPQVLQEATFCVVLRGARLGQAVLSDVLQAGCVPVVIADSYILPFSEVLDWKRASVVVPEEKMSDVYSILQSIPQRQIEEMQRQARWFWEAYFQSIKAIALATLQIINDRIYPYAAISYEEWNDPPAVKWGSVSNPLFLPLIPPQSQGFTAIVLTYDRVESLFRVITEVSKVPSLSKLLVVWNNQNKNPPEDSLWPKIRVPLKVVRTAENKLSNRFFPYDEIETEAVLAIDDDIIMLTSDELQFGYEVWREFPDRLVGYPGRLHLWDHEMNKWKYESEWTNEVSMVLTGAAFYHKYFNYLYTYKMPGDIKNWVDAHMNCEDIAMNFLVANVTGKAVIKVTPRKKFKCPECTAIDGLSLDQTHMVERSECINKFASVFGTMPLKVVEHRADPVLYKDDFPEKLKSFPNIGSL [EXT2],-0.537,54,53.4,0.0664,-1.61,-1.33
MARLWGALSLWPLWAAVPWGGAAAVGVRACSSTAAPDGVEGPALRRSYWRHLRRLVLGPPEPPFSHVCQVGDPVLRGVAAPVERAQLGGPELQRLTQRLVQVMRRRRCVGLSAPQLGVPRQVLALELPEALCRECPPRQRALRQMEPFPLRVFVNPSLRVLDSRLVTFPEGCESVAGFLACVPRFQAVQISGLDPNGEQVVWQASGWAARIIQHEMDHLQGCLFIDKMDSRTFTNVYWMKVND [PDF],0.308,54.8,54.9,-0.136,1.03,0.625
MICAL3,-0.213,51.4,50.5,-0.0995,-0.909,-0.953
MSVNSEKSSSSERPEPQQKAPLVPPPPPPPPPPPPPLPDPTPPEPEEEILGSDDEEQEDPADYCKGGYHPVKIGDLFNGRYHVIRKLGWGHFSTVWLCWDMQGKRFVAMKVVKSAQHYTETALDEIKLLKCVRESDPSDPNKDMVVQLIDDFKISGMNGIHVCMVFEVLGHHLLKWIIKSNYQGLPVRCVKSIIRQVLQGLDYLHSKCKIIHTDIKPENILMCVDDAYVRRMAAEATEWQKAGAPPPSGSAVSTAPQQKPIGKISKNKKKKLKKKQKRQAELLEKRLQEIEELEREAERKIIEENITSAAPSNDQDGEYCPEVKLKTTGLEEAAEAETAKDNGEAEDQEEKEDAEKENIEKDEDDVDQELANIDPTWIESPKTNGHIENGPFSLEQQLDDEDDDEEDCPNPEEYNLDEPNAESDYTYSSSYEQFNGELPNGRHKIPESQFPEFSTSLFSGSLEPVACGSVLSEGSPLTEQEESSPSHDRSRTVSASSTGDLPKAKTRAADLLVNPLDPRNADKIRVKIADLGNACWVHKHFTEDIQTRQYRSIEVLIGAGYSTPADIWSTACMAFELATGDYLFEPHSGEDYSRDEDHIAHIIELLGSIPRHFALSGKYSREFFNRRGELRHITKLKPWSLFDVLVEKYGWPHEDAAQFTDFLIPMLEMVPEKRASAGECLRHPWLNS [SRPK2],-0.405,53.3,52.2,0.0499,-3.22,-4.46
MEEGHGLDLTYITERIIAVSFPAGCSEESYLHNLQEVTRMLKSKHGDNYLVLNLSEKRYDLTKLNPKIMDVGWPELHAPPLDKMCTICKAQESWLNSNLQHVVVIHCRGGKGRIGVVISSYMHFTNVSASADQALDRFAMKKFYDDKVSALMQPSQKRYVQFLSGLLSGSVKMNASPLFLHFVILHGTPNFDTGGVCRPFLKLYQAMQPVYTSGIYNVGPENPSRICIVIEPAQLLKGDVMVKCYHKKYRSATRDVIFRLQFHTGAVQGYGLVFGKEDLDNASKDDRFPDYGKVELVFSATPEKIQGSEHLYNDHGVIVDYNTTDPLIRWDSYENLSADGEVLHTQGPVDGSLYAKVRKKSSSDPGIPGGPQAIPATNSPDHSDHTLSVSSDSGHSTASARTDKTEERLAPGTRRGLSAQEKAELDQLLSGFGLEDPGSSLKEMTDARSKYSGTRHVVPAQVHVNGDAALKDRETDILDDEMPHHDLHSVDSLGTLSSSEGPQSAHLGPFTCHKSSQNSLLSDGFGSNVGEDPQGTLVPDLGLGMDGPYERERTFGSREPKQPQPLLRKPSVSAQMQAYGQSSYSTQTWVRQQQMVVAHQYSFAPDGEARLVSRCPADNPGLVQAQPRVPLTPTRGTSSRVAVQRGVGSGPHPPDTQQPSPSKAFKPRFPGDQVVNGAGPELSTGPSPGSPTLDIDQSIEQLNRLILELDPTFEPIPTHMNALGSQANGSVSPDSVGGGLRASSRLPDTGEGPSRATGRQGSSAEQPLGGRLRKLSLGQYDNDAGGQLPFSKCAWGKAGVDYAPNLPPFPSPADVKETMTPGYPQDLDIIDGRILSSKESMCSTPAFPVSPETPYVKTALRHPPFSPPEPPLSSPASQHKGGREPRSCPETLTHAVGMSESPIGPKSTMLRADASSTPSFQQAFASSCTISSNGPGQRRESSSSAERQWVESSPKPMVSLLGSGRPTGSPLSAEFSGTRKDSPVLSCFPPSELQAPFHSHELSLAEPPDSLAPPSSQAFLGFGTAPVGSGLPPEEDLGALLANSHGASPTPSIPLTATGAADNGFLSHNFLTVAPGHSSHHSPGLQGQGVTLPGQPPLPEKKRASEGDRSLGSVSPSSSGFSSPHSGSTISIPFPNVLPDFSKASEAASPLPDSPGDKLVIVKFVQDTSKFWYKADISREQAIAMLKDKEPGSFIVRDSHSFRGAYGLAMKVATPPPSVLQLNKKAGDLANELVRHFLIECTPKGVRLKGCSNEPYFGSLTALVCQHSITPLALPCKLLIPERDPLEEIAESSPQTAANSAAELLKQGAACNVWYLNSVEMESLTGHQAIQKALSITLVQEPPPVSTVVHFKVSAQGITLTDNQRKLFFRRHYPVNSVIFCALDPQDRKWIKDGPSSKVFGFVARKQGSATDNVCHLFAEHDPEQPASAIVNFVSKVMIGSPKKV [TNS3],0.127,48,49.8,-0.126,1.68,3.85
MFRLNSLSALAELAVGSRWYHGGSQPIQIRRRLMMVAFLGASAVTASTGLLWKRAHAESPPCVDNLKSDIGDKGKNKDEGDVCNHEKKTADLAPHPEEKKKKRSGFRDRKVMEYENRIRAYSTPDKIFRYFATLKVISEPGEAEVFMTPEDFVRSITPNEKQPEHLGLDQYIIKRFDGKKISQEREKFADEGSIFYTLGECGLISFSDYIFLTTVLSTPQRNFEIAFKMFDLNGDGEVDMEEFEQVQSIIRSQTSMGMRHRDRPTTGNTLKSGLCSALTTYFFGADLKGKLTIKNFLEFQRKLQHDVLKLEFERHDPVDGRITERQFGGMLLAYSGVQSKKLTAMQRQLKKHFKEGKGLTFQEVENFFTFLKNINDVDTALSFYHMAGASLDKVTMQQVARTVAKVELSDHVCDVVFALFDCDGNGELSNKEFVSIMKQRLMRGLEKPKDMGFTRLMQAMWKCAQETAWDFALPKQ [MICU1],-0.299,52.2,51.3,-0.00566,1.14,1.13
MERAISPGLLVRALLLLLLLLGLAARTVAAGRARGLPAPTAEAAFGLGAAAAPTSATRVPAAGAVAAAEVTVEDAEALPAAAGEQEPRGPEPDDETELRPRGRSLVIISTLDGRIAALDPENHGKKQWDLDVGSGSLVSSSLSKPEVFGNKMIIPSLDGALFQWDQDRESMETVPFTVESLLESSYKFGDDVVLVGGKSLTTYGLSAYSGKVRYICSALGCRQWDSDEMEQEEDILLLQRTQKTVRAVGPRSGNEKWNFSVGHFELRYIPDMETRAGFIESTFKPNENTEESKIISDVEEQEAAIMDIVIKVSVADWKVMAFSKKGGHLEWEYQFCTPIASAWLLKDGKVIPISLFDDTSYTSNDDVLEDEEDIVEAARGATENSVYLGMYRGQLYLQSSVRISEKFPSSPKALESVTNENAIIPLPTIKWKPLIHSPSRTPVLVGSDEFDKCLSNDKFSHEEYSNGALSILQYPYDNGYYLPYYKRERNKRSTQITVRFLDNPHYNKNIRKKDPVLLLHWWKEIVATILFCIIATTFIVRRLFHPHPHRQRKESETQCQTENKYDSVSGEANDSSWNDIKNSGYISRYLTDFEPIQCLGRGGFGVVFEAKNKVDDCNYAIKRIRLPNRELAREKVMREVKALAKLEHPGIVRYFNAWLEAPPEKWQEKMDEIWLKDESTDWPLSSPSPMDAPSVKIRRMDPFATKEHIEIIAPSPQRSRSFSVGISCDQTSSSESQFSPLEFSGMDHEDISESVDAAYNLQDSCLTDCDVEDGTMDGNDEGHSFELCPSEASPYVRSRERTSSSIVFEDSGCDNASSKEEPKTNRLHIGNHCANKLTAFKPTSSKSSSEATLSISPPRPTTLSLDLTKNTTEKLQPSSPKVYLYIQMQLCRKENLKDWMNGRCTIEERERSVCLHIFLQIAEAVEFLHSKGLMHRDLKPSNIFFTMDDVVKVGDFGLVTAMDQDEEEQTVLTPMPAYARHTGQVGTKLYMSPEQIHGNSYSHKVDIFSLGLILFELLYPFSTQMERVRTLTDVRNLKFPPLFTQKYPCEYVMVQDMLSPSPMERPEAINIIENAVFEDLDFPGKTVLRQRSRSLSSSGTKHSRQSNNSHSPLPSN [EIF2AK3],0.0589,51,–,-0.0251,-0.111,0.409
